Test results reported in patent US10253086B2, “CD20 therapies, CD22 therapies, and combination therapies with a CD19 chimeric antigen receptor (CAR)-expressing cell” (Novartis AG, priority 2015, dated 2019).
Residue numbers refer to the chain shown, from its start. Blank lines part the entries; values can stand above or below the molecule they belong to.

Columns and labels:
cynomolgus CD123 = assay: Cross-reactivity of anti-CD123 clones with cynomolgus CD123; format: binding
Description: Their activity was compared against mouse clones 1172 and 1176, comprising the VH and VL domains in a light-to-heavy orientation with a CD8 hinge domain, CD8 transmembrane domain, and 41BB-costimulatory domain. […] 1172 is not.

[1] = tested on: luciferase-expressing mantle cell line (RL luc); assay: RL luc mantle cell lymphoma xenograft, CART19 with exogenous IL-7; format: in vivo, NSG mice
Procedure: Next, the effect of exogenous IL-7 treatment on anti-tumor activity of CART19 cells was assessed in a lymphoma animal model. NSG mice were engrafted with a luciferase-expressing mantle cell line (RL luc) on Day 0 (D0), followed by treatment of CART19 cells on Day 6. The NSG mice were divided into groups, where one group received no CART19 cells, a second group received 0.5×10^6 CART19 cells, a third group received 1×10^6 CART19 cells, and a fourth group received 2×10^6 CART19 cells. Tumor size was monitored by measuring the mean bioluminescence of the engrafted tumors over more than 80 days. […] When comparing the tumor burden of mice that received IL-7 treatment to control, before and after IL-7 treatment, tumor reduction in tumor burden was only seen in the mice that had received IL-7 treatment (FIG. 10C).
T cell dynamics following IL-7 treatment in the lymphoma animal model was also examined. Human CART19 cells were not detectable in the blood prior to IL-7 treatment. […] The extent of T cell expansion observed in mice receiving the IL-7 also correlated with tumor response. The mouse with the highest number of T cells detected in the blood at peak expansion during IL-7 treatment (mouse #3815) had the most robust reduction in tumor burden (see FIG. 10B). Moreover, the time of peak expansion correlated with the T cell dose injected as baseline. The number/level CD3-expressing cells in the blood were also measured before and after IL-7 treatment.

CD19 and CD22 = assay: NFAT assay of bispecific CAR19/CAR22 constructs; format: cell-based
Procedure: The bispecific CD19-CD22 and CD22-CD19 constructs described above were tested in an NFAT assay, as described in the Examples below. As controls, an anti-CD19 alone CAR and an anti-CD22 alone CAR were used.

[2] = tested on: Raji, SEM, K562-hCD22, Daudi, and Nalm6; assay: Primary T-cell tumor target killing assay; format: cell-based, human; settings: for target cell killing: CD22 expressing luciferase target cell lines
Description: Primary T-cells activated and transduced as described above were mixed with target cell lines stably expressing luciferase at the ratios indicated (FIG. 20A-20F). […] Untransduced T-cells (UTD) lacked the ability to kill target cell lines.

[3] = target: recombinant human CD22-Fc (Homo sapiens, UniProt P20273); assay: Surface expression of CD22 CAR in primary human T-cells (Protein-L, rhCD22-Fc); format: cell-based; settings: day 10, flow cytometry
Procedure: Primary human T-cells were activated with anti-CD3/antiCD28 stimulatory beads on day 0, followed by lentiviral transduction of specified CAR constructs on day 1. Cells were expanded in vitro until day, 10 at which point they were analyzed by flow cytometry for surface expression of CAR. Two different approaches were utilized to determine surface expression of CAR: Protein-L-biotin followed by streptavidin-PE, and recombinant human CD22-Fc followed by anti-Fc-alexafluor 488. […] CD22 CAR m971 served as a positive control for binding both Protein-L and hrCD22-Fc, and Isotype CAR with no specificity (anti-gH) served as a positive control for Protein-L. T cells expressing no CAR were used as a negative control.

CD22 = assay: NFAT assay of CD22 CAR in JNL cells on antigen-coated plates; format: cell-based, human
Procedure: Several CD22 CAR constructs were functionally validated in an NFAT assay. Briefly the experiments were performed as follows. A lentiviral vector (pELPS) carrying a nucleic acid, encoding a CD22 CAR with a CD22-binding scFv domain was introduced by electroporation into a Jurkat T cell line modified to express luciferase under the control of an NFAT response element (JNL). The cells were cultured and allowed to express the CAR construct. The electroporated cells were applied to a plate coated with the target antigen (CD22). Detection of luciferase signal in the coated plate was indicative of binding activity of the CD22 CAR to its antigen, leading to activation of the T cells and expression of luciferase.
The results also indicate that the different scFvs compete with m971 to different extents.
FIG. 72 is a graph showing the activation (in RLU) of several CD22 CAR-expressing JNL cells including CD22-57, CD22-58, CD22-59, CD22-60, CD22-61, CD22-62, and CD22-63, the scFv sequences of which are provided herein. Three different target proteins (CD22-FL-Fc, CD22-D567-Fc, and CD22-D67) were used to coat the tissue culture plates; a negative control (Fc) was also included. A mesothelin binding CAR (Meso-G07) was used as a negative control. CD22-12 and CD22-53 were used as positive controls. […] Domain mapping was performed on CD22 binding domains. Three different forms of antigens were used: CD22 full-length with all 7 external domains, Domain567 (in which domains 1-4 were deleted) and Domain67 (in which domains 1-5 were deleted). While not wishing to be bound by theory, it appears that the binding of various CD22 clones maps to the epitopes illustrated in FIG. 75.
Two scFvs, named CD22-64 and CD22-65, were produced by affinity maturation of hCD22-12. CAR constructs containing these scFvs were tested for activity in an NFAT assay as described above. […] The bars in the figure represent, from left to right, CD22 full length-Fc; CD22 D567-Fc; and an Fc only negative control used for coating of the plates.

Raji-Luc and Daudi-Luc = assay: IFN-gamma and IL-2 secretion by CD22 CAR primary T cells; format: cell-based, human; settings: E:T 10 to 1, 20-hr co-culture
Procedure: CD22 CAR constructs were also tested for the ability to promote secretion of IFN-gamma and IL-2. Briefly, transduced primary T cells from healthy donors expressing the different CD22 CARs were co-cultured with the CD22-positive target cells Raji-Luc and Daudi-Luc as well as the negative control K562-Luc. T cells and target cell were cultured in an effector-to-target cell ratio (E:T) of 10 to 1. Supernatants were harvested after 20-hr co-culture. […] Similar results were observed when Nalm6-Luc, Pfeiffer-Luc, and K562-CD22-Luc, and SEM-Luc cells were tested (data not shown). Minimal IFN-gamma secretion was observed when the K562-Luc negative control cell line was tested (bottom panel).

B1: NVS 3: human anti-human CD123 clone expressing CAR123-3 (antibody, V domains shown)
VH: QVQLVQSGAEVKKPGASVKVSCKASGYIFTGYYIHWVRQAPGQGLEWMGWINPNSGGTNYAQKFQGRVTMTRDTSISTAYMELSGLRSDDPAVYYCARDMNILATVPFDIWGQGTLVTVSS
VL: DIQLTQSPSSLSASVGDRVTITCRASQSISSYLNWYQQKPGKAPKLLIYAASSLQSGVPSRFSGSGSGTDFTLTVNSLQPEDFATYYCQQGDSVPLTFGGGTKVEIK
cross-reactivity against cynomolgus CD123 (cynomolgus CD123): cross-reactive against cynomolgus CD123

B2: NVS 4: human anti-human CD123 clone expressing CAR123-4 (antibody, V domains shown)
VH: QVQLQQSGAEVKKSGASVKVSCKASGYTFTDYYMHWLRQAPGQGLEWMGWINPNSGDTNYAQKFQGRVTLTRDTSISTVYMELSRLRSDDTAVYYCARDMNILATVPFDIWGQGTMVTVSS
VL: B1 VL with L4M, V75I, N76S
cross-reactivity against cynomolgus CD123 (cynomolgus CD123): cross-reactive against cynomolgus CD123

B3: IL-7: exogenous recombinant human IL-7 (protein, UniProt P13232 26-177, looked up)
Interleukin-7: DCDIEGKDGKQYESVLMVSIDQLLDSMKEIGSNCLNNEFNFFKRHICDANKEGMFLFRAARKLRQFLKMNSTGDFDLHLLKVSEGTTILLNCTGQVKGRKPAALGEAQPTKSLEENKSLKEQKKLNDLCFLKRLLQEIKTCWNKILMGTKEH
reduction in tumor burden ([1]; IL-7 200 ng/mouse i.p. three times weekly from Day 85, mice with suboptimal CART19 response): 1-3 log
CD3-expressing cells in the blood ([1]; after IL-7 treatment vs control mice): significant increase in CD3+ cells
numbers of T cells in blood ([1]; upon IL-7 treatment): rapid, but variable increase in the numbers of T cells

B4: CD19-CD22: bispecific scFv tandem fusion CAR, humanized anti-CD19 (104876) and hCD22-2 (protein)
scFv: EIVMTQSPATLSLSPGERATLSCRASQDISKYLNWYQQKPGQAPRLLIYHTSRLHSGIPARFSGSGSGTDYTLTISSLQPEDFAVYFCQQGNTLPYTFGQGTKLEIKGGGGSGGGGSGGGGSQVQLQESGPGLVKPSETLSLTCTVSGVSLPDYGVSWIRQPPGKGLEWIGVIWGSETTYYQSSLKSRVTISKDNSKNQVSLKLSSVTAADTAVYYCAKHYYYGGSYAMDYWGQGTLVTVSSGGGGSGGGGSGGGGSGGGGSEVQLQQSGPGLVKPSQTLSLTCAISGDSVSSNSAAWNWIRQSPSRGLEWLGRTYYRSKWYNDYAVSVKSRITINPDTSKNQFSLQLNSVTPEDTAVYYCARDLGWIAVAGTFDYWGQGTLVTVSSGGGGSGGGGSGGGGSQSALTQPASVSGSPGQSITISCTGTSSDVGGYNYVSWYQQHPGKAPKLMIYDVSKRPSGVSNRFSGSKSGNTASLTISGLQAEDEADYYCSSYTSSSLNHVFGTGTKVTVLT
activity in NFAT assay (CD19 and CD22): active against their targets

surface expression of CAR [3]: positive surface expression
B5: CD22-12: human CD22 CAR, parent of CD22-64 and CD22-65 (protein)
scFv: EVQLQQSGPGLVKPSQTLSLTCAISGDSVLSNSDTWNWIRQSPSRGLEWLGRTYHRSTWYDDYASSVRGRVSINVDTSKNQYSLQLNAVTPEDTGVYYCARDRLQDGNSWSDAFDVWGQGTMVTVSSGGGGSGGGGSGGGGSQSALTQPASASGSPGQSVTISCTGTSSDVGGYNYVSWYQQHPGKAPKLMIYDVSNRPSGVSNRFSGSKSGNTASLTISGLQAEDEADYYCSSYTSSSTLYVFGTGTQLTVL
activity in cell killing and cytokine secretion assays (Example 9) [2]: activity comparable to m971
target cell killing [2]: dose-dependent target cell killing
activity (see Example 25) (CD22): found to have activity
antigen binding / activation (RLU) vs m971 (CD22; with and without m971 scFv competitor): bind the antigen approximately as well as the m971 positive control
IFN-gamma secretion (Raji-Luc and Daudi-Luc): induced IFN-gamma secretion

B6: CD22-CD19: bispecific scFv tandem fusion CAR, hCD22-2 and humanized anti-CD19 (104876) (protein)
scFv: EVQLQQSGPGLVKPSQTLSLTCAISGDSVSSNSAAWNWIRQSPSRGLEWLGRTYYRSKWYNDYAVSVKSRITINPDTSKNQFSLQLNSVTPEDTAVYYCARDLGWIAVAGTFDYWGQGTLVTVSSGGGGSGGGGSGGGGSQSALTQPASVSGSPGQSITISCTGTSSDVGGYNYVSWYQQHPGKAPKLMIYDVSKRPSGVSNRFSGSKSGNTASLTISGLQAEDEADYYCSSYTSSSLNHVFGTGTKVTVLTGGGGSGGGGSGGGGSGGGGSEIVMTQSPATLSLSPGERATLSCRASQDISKYLNWYQQKPGQAPRLLIYHTSRLHSGIPARFSGSGSGTDYTLTISSLQPEDFAVYFCQQGNTLPYTFGQGTKLEIKGGGGSGGGGSGGGGSQVQLQESGPGLVKPSETLSLTCTVSGVSLPDYGVSWIRQPPGKGLEWIGVIWGSETTYYQSSLKSRVTISKDNSKNQVSLKLSSVTAADTAVYYCAKHYYYGGSYAMDYWGQGTLVTVSS
activity in NFAT assay (CD19 and CD22): active against their targets

B7: m971-HL: CD22 (m971-derived) CAR construct that served as positive control (antibody, V domains shown)
VH: QVQLQQSGPGLVKPSQTLSLTCAISGDSVSSNSAAWNWIRQSPSRGLEWLGRTYYRSKWYNDYAVSVKSRITINPDTSKNQFSLQLNSVTPEDTAVYYCAREVTGDLEDAFDIWGQGTMVTV
VL: DIQMTQSPSSLSASVGDRVTITCRASQTIWSYLNWYQQRPGKAPNLLIYAASSLQSGVPSRFSGRGSGTDFTLTISSLQAEDFATYYCQQSYSIPQTFGQGTKLEIK
target cell killing [2]: dose-dependent target cell killing
IFN-gamma secretion (Raji-Luc and Daudi-Luc): induced IFN-gamma secretion
